Data on three molecules can be found in doi:10.1101/2022.02.28.482286 (bioRxiv, 2022).

Common to all, as to assay: cryo-EM structure
Assay [1] deals with T1, Pol III subunit C128 (S. cerevisiae, UniProt P22276 1-1149).
T1 sequence (looked up): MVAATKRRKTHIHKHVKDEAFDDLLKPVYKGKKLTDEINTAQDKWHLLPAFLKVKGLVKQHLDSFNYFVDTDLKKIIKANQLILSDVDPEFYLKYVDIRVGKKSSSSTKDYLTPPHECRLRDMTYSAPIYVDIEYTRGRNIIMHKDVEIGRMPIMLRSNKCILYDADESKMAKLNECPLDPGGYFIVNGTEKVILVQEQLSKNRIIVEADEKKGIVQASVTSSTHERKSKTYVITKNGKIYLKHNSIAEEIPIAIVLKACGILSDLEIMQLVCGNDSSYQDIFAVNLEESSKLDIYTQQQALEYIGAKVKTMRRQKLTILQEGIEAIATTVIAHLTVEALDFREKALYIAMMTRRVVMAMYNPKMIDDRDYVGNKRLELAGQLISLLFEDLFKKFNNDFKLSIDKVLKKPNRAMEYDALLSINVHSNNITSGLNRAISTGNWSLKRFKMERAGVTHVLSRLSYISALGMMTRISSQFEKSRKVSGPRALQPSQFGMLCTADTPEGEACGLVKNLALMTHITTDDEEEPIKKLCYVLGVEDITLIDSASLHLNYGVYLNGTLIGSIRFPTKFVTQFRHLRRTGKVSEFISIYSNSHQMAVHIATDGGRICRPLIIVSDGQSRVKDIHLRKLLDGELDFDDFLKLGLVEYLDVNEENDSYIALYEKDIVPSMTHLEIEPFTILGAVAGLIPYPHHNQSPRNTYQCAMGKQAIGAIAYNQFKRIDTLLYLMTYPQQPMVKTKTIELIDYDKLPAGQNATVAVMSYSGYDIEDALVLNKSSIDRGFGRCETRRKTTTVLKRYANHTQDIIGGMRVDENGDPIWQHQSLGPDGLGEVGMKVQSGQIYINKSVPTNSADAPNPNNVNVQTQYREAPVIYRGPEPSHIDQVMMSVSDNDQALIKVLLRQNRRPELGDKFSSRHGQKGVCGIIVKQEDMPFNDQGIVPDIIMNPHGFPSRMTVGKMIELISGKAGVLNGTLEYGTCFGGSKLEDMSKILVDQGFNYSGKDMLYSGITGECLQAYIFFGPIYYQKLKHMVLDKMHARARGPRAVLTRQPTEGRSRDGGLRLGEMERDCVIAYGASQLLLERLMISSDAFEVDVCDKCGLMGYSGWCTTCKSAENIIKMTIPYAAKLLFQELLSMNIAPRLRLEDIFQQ

Assay [2] concerns the target T2, Pol III subunit C53 (S. cerevisiae, UniProt P25441 1-422).
T2 sequence (looked up): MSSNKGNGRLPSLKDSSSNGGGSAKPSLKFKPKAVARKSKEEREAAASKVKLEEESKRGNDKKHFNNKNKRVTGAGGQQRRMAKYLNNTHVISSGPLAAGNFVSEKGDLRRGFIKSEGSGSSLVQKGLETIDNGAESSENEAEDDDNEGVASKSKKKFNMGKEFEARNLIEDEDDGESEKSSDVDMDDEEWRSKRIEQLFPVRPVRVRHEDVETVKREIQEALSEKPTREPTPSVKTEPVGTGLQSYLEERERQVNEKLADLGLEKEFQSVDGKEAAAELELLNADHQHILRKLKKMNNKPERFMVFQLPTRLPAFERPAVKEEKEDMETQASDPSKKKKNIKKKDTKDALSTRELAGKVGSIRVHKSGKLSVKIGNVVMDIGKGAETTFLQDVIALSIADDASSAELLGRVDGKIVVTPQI

The target of assay [3] is T3, Pol III subunit C160 (S. cerevisiae, UniProt P04051 1-1460).
T3 sequence (looked up): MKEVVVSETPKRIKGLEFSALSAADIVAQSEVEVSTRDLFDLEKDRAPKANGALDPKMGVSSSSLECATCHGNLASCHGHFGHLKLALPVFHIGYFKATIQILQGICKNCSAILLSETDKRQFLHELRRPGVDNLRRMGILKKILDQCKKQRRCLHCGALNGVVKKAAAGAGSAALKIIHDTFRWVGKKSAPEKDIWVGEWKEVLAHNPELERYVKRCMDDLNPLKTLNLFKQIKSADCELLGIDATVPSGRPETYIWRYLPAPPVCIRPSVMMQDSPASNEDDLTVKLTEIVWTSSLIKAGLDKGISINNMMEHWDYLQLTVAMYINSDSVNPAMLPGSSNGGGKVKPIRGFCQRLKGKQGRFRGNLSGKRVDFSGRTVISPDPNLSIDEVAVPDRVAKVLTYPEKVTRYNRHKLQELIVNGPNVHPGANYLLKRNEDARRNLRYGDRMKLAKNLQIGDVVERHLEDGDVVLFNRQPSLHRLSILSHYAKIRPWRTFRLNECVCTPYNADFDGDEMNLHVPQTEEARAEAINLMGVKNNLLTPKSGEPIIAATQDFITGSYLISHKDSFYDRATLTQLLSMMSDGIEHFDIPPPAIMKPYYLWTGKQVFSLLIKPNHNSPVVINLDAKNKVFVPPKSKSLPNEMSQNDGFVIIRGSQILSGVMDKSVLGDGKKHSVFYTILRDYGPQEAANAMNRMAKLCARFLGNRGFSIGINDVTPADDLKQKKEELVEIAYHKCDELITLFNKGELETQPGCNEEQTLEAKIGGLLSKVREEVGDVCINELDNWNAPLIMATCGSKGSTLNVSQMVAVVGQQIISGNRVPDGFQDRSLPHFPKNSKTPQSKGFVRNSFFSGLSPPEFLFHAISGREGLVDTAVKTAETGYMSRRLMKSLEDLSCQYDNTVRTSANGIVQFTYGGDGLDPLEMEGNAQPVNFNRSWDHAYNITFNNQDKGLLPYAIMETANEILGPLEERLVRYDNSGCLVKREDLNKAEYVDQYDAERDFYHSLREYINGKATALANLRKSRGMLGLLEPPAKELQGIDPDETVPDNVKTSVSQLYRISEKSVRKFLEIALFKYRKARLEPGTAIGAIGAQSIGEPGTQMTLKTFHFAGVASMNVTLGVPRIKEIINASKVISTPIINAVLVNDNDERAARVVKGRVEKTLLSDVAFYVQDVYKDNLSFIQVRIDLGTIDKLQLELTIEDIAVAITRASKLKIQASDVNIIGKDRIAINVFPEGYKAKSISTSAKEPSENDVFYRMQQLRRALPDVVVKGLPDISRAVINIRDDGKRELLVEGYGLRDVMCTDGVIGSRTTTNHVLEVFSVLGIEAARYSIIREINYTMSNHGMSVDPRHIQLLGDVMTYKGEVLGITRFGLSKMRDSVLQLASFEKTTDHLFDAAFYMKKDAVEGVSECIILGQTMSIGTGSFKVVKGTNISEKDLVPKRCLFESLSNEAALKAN

Assay [4] deals with T4, subunit ABC27 (S. cerevisiae, UniProt P20434 1-215).
T4 sequence (looked up): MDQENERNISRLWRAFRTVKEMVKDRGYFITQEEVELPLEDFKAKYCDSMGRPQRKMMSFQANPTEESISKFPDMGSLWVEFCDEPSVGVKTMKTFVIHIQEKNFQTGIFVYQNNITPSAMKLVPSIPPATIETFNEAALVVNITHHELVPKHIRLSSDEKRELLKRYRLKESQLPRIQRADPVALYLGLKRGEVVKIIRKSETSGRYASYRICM

B1: C53-C37 heterodimer (complex, S. cerevisiae)
chain 1: T2 sequence (looked up)
chain 2: MSIDNKLFVTEEDEEDRTQDRADVEDESNDIDMIADENGTNSAIANEQEEKSEEVKAEDDTGEEEEDDPVIEEFPLKISGEEESLHVFQYANRPRLVGRKPAEHPFISAARYKPKSHLWEIDIPLDEQAFYNKDKAESEWNGVNVQTLKGVGVENNGQYAAFVKDMQVYLVPIERVAQLKPFFKYIDDANVTRKQEDARRNPNPSSQRAQVVTMSVKSVNDPSQNRLTGSLLAHKVADEEANIELTWAEGTFEQFKDTIVKEAEDKTLVALEKQEDYIDNLV
As for B1, the binding result in assay [1] is listed as “binds”.

B2: Pol III subunit C37 (natural protein, S. cerevisiae, UniProt P36121 1-282, looked up)
chain: B1 chain 2
Consider B2, for which the binding result in assay [2] and in assay [1] was “binds” each time.

B3: Pol III subunit C11 (natural protein, S. cerevisiae, UniProt Q04307 1-110, looked up)
chain: MLSFCPSCNNMLLITSGDSGVYTLACRSCPYEFPIEGIEIYDRKKLPRKEVDDVLGGGWDNVDQTKTQCPNYDTCGGESAYFFQLQIRSADEPMTTFYKCVNCGHRWKEN
As to B3, the binding result in assay [3] and in assay [4] was “binds” throughout.
